# Measured values taken from US20190015483A1 (CSL BEHRING RECOMBINANT FACILITY, published 2019).
# Residue numbers refer to the chain shown, from its start. Numbers in names are those of the source. Where “and” joins values, the source holds several entries; their conditions need not be identical. Equal entries are not always repeated.
# T1: recombinant Factor VIII (CSL627, rVIII-SingleChain) (Homo sapiens (Human), UniProt P00451 20-2351)
# T1 construct: also called FVIII
# T1 sequence: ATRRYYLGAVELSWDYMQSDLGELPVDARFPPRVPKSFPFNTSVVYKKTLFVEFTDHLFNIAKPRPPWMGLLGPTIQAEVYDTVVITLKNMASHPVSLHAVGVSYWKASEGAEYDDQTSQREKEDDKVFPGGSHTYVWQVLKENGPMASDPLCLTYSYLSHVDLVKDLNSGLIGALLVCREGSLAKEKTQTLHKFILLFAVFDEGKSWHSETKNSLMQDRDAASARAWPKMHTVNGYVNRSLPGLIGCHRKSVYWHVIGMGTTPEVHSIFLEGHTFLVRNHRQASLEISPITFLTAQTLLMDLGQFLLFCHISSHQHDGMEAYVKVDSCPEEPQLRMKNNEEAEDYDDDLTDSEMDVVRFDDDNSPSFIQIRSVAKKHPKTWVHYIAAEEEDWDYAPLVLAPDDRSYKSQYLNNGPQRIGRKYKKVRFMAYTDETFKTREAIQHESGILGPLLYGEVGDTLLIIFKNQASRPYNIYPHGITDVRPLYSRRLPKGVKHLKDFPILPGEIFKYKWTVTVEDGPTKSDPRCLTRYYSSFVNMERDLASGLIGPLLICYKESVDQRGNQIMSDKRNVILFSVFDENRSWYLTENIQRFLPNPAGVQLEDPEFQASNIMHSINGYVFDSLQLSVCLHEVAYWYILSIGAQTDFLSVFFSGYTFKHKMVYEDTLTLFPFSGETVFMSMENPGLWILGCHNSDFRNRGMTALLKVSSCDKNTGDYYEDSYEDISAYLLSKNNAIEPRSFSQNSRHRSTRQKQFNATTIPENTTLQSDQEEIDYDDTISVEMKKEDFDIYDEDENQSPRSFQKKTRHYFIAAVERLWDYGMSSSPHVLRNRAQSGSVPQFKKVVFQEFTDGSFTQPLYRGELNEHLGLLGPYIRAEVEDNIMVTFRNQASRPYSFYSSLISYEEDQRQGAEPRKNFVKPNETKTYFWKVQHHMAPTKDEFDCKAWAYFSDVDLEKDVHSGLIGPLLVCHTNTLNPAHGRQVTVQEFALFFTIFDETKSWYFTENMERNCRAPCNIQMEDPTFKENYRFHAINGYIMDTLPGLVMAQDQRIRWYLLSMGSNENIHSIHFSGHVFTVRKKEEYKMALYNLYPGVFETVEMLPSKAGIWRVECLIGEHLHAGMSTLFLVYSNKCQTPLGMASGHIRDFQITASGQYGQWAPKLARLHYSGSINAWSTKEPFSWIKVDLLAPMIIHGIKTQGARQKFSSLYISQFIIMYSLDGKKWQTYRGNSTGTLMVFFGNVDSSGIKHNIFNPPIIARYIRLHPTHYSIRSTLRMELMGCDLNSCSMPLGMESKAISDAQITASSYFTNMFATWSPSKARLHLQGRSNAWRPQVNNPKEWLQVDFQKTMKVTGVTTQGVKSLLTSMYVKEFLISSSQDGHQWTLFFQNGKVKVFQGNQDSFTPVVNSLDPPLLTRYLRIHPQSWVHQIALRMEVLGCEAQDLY
# T2: recombinant Factor VIII (CSL627, rVIII-SingleChain) (Homo sapiens (Human), UniProt P00451 20-2351)
# T2 construct: also called FVIII
# T2 sequence: T1 sequence
# B1: Hu-vWF[764-1270]-8His S764M/S766Y (other)
# chain: MLYCRPPMVKLVCPADNLRAEGLECTKTCQNYDLECMSMGCVSGCLCPPGMVRHENRCVALERCPCFHQGKEYAPGETVKIGCNTCVCRDRKWNCTDHVCDATCSTIGMAHYLTFDGLKYLFPGECQYVLVQDYCGSNPGTFRILVGNKGCSHPSVKCKKRVTILVEGGEIELFDGEVNVKRPMKDETHFEVVESGRYIILLLGKALSVVWDRHLSISVVLKQTYQEKVCGLCGNFDGIQNNDLTSSNLQVEEDPVDFGNSWKVSSQCADTRKVPLDSSPATCHNNIMKQTMVDSSCRILTSDVFQDCNKLVDPEPYLDVCIYDTCSCESIGDCACFCDTIAAYAHVCAQHGKVVTWRTATLCPQSCEERNLRENGYECEWRYNSCAPACQVTCQHPEPLACPVQCVEGCHAHCPPGKILDELLQTCVDPEDCPVCEVAGRRFASGKKVTLNPSDPEHCQICHCDVVNLTCEACQEPGGLVVPPTDAPVSPTTLYVEDISEPPLHDFHHHHHHHH
# B2: Hu-vWF[764-1270]-8His S764V/S766Y (other)
# chain: B1 chain with M1V
# B3: Hu-vWF[764-1270]-8His S764T/S766Y (other)
# chain: B1 chain with M1T
# B4: Hu-vWF[764-1270]-8His S764W/S766Y (other)
# chain: B1 chain with M1W
# B5: Hu-vWF[764-1270]-8His S764Q/S766Y (other)
# chain: B1 chain with M1Q
# B6: Hu-vWF[764-1270]-8His S764N/S766Y (other)
# chain: B1 chain with M1N
# B7: Hu-vWF[764-1270]-8His S764P-S766Y (other)
# chain: B1 chain with M1P
# B8: Hu-vWF[764-1270]-8His S764R/S766Y (other)
# chain: B1 chain with M1R
# B9: Hu-vWF[764-1270]-8His S764Y/S766Y (other)
# chain: B1 chain with M1Y
# B10: Hu-vWF[764-1270]-8His S764P-S766M (other)
# chain: B1 chain with M1P, Y3M
# B11: Hu-vWF[764-1270]-8His S764P-S766W (other)
# chain: B1 chain with M1P, Y3W
# B12: Hu-vWF[764-1270]-8His S764P-S766L (other)
# chain: B1 chain with M1P, Y3L
# Target: recombinant Factor VIII (CSL627, rVIII-SingleChain) (Homo sapiens (Human)) (UniProt P00451)
# Assay: SPR, anti-His capture, FVIII injected, 37 C
Kd,koff,kon,Molecule
255 pM and 199 pM,0.00159 s⁻¹ and 0.0025 s⁻¹,6.23e+06 M⁻¹ s⁻¹ and 1.25e+07 M⁻¹ s⁻¹,Hu-vWF[764-1270]-8His dupS764/S764P/S766I (from UniProt P04275 767-1270)

# Target: T1, recombinant Factor VIII (CSL627, …)
# Assay: SPR, anti-His capture
# Method: Binding kinetics were investigated by surface plasmon resonance using a Biacore 4000 biosensor at 37° C. Each mutant was captured from cell culture medium to a density of 40-150 RU on a CM-5 sensor chip pre-immobilised with anti-His antibody (14,000 RU). In an initial screening study, FVIII was injected over the captured mutants for 5 minutes at 1 nM and dissociation monitored for 5 minutes.
# All sensorgrams were double referenced by subtraction of signals from a reference spot (containing only immobilised anti His antibody) and from a blank injection. Binding kinetics were determined by fitting the double referenced sensorgrams to a 1:1 kinetic model.
Kd [pM],koff [s⁻¹],kon [M⁻¹ s⁻¹],Molecule
14.4,0.000103,7.15e+06,B1
2.15,6.41e-05,2.99e+07,B2
5.27,0.000136,2.58e+07,B3
10.9,9.67e-05,8.88e+06,B4
9.18,0.000109,1.19e+07,B5
6.92,8.88e-05,1.28e+07,B6
7.16,7.71e-05,1.08e+07,B7
2.85,9.2e-05,3.23e+07,B8
2.47,7.88e-05,3.19e+07,B9

# Target: T2, recombinant Factor VIII (CSL627, …)
# Assay: SPR, anti-His capture, FVIII injected, pH 5.5
Kd [pM],koff [s⁻¹],kon [M⁻¹ s⁻¹],Molecule
292,9.16e-05,314000,B10
172,4.75e-05,277000,B11
234,0.000104,445000,B12

# Target: T1, recombinant Factor VIII (CSL627, …)
# Assay: SPR, anti-His capture
# Remark: another data set of the same source
# Summary of the method: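 Anti-His antibody (14,000 RU) captures each mutant from culture supernatant to 40-150 RU. Single-concentration FVIII injection (1 nM) over 5 min, then dissociation tracked for 5 min. Kinetics derive from 1:1 fitting after double referencing.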
Kd [pM],koff [s⁻¹],kon [M⁻¹ s⁻¹],Molecule
7.16,7.71e-05,1.08e+07,B7
